# B1: TPR t1 (parent)
# chain: GACCAAUCUGCCCUCAGAGCUCGAGAACAUCUUCGGAUGCAGAGGAGGCAGGCUUCGGUGGCGCGAUAGCGCCAACGUCCUCAACCUCCAAUGCAUCCCACCACAUGAUGAUGCCUGAAGAGCCUUGGUUUUUUG
# Variants of: B1
# Test: polymerase ribozyme fitness, log enrichment relative to wild type (log ratio); higher = more active; in vitro selection for triplet polymerase activity
# Procedure, shortened: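 The heterodimeric triplet polymerase ribozyme's subunits were each mutagenized into PCR-built libraries and transcribed. Every library was selected once, in triplicate, by annealing with a biotinylated primer, the partner subunit and triplets, incubating frozen at −7 °C, gel-excising extended constructs, capturing on streptavidin beads and running RT-PCR. Input and output libraries were Illumina-sequenced, with genotypes kept only at ≥10 input reads and ≥1 read per output. Fitness, from inverse-variance-weighted replicate averages, is the base-2 logarithm of genotype enrichment over wild-type enrichment.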
row,Variant,polymerase ribozyme fitness (log ratio)
1,C53A C82U C88G A118U,-0.344
2,C53U A74C,-0.315
3,A50U U59A G60C C80G C88U C123U,-1.82
4,G52U U59G C88A C101U,-1.76
5,A50U C72U U106C,-0.84
6,G51U U106G G110U C124A,-6.4
7,A50U U131A,-0.622
8,G52U G120C,-0.122
9,G52U G120A,-0.091
10,G52U G60A G69A C82A C102U C123G,-6.73
11,G51U C53U C88G,-2.23
12,G52C G120C,-0.0985
13,G52C G120U,-0.715
14,A50U G51A U87G U106A,-2.51
15,C53A G71U G128C,-2.77
16,C53A G61A C79A,-0.911
17,G52U U130C,-0.807
18,A50U U55C U92G A118G,-5.06
19,G52A G120A,0.47
20,A50U G120C,0.234
21,C53G G69C,-0.98

row,Variant,polymerase ribozyme fitness (log ratio)
1,C53G C123A,0.261
2,C53U G120A U130A,0.491
3,G52U C72G,0.452
4,G51U G120A,-2.64
5,A50U G60U G117U,-4.36
6,G51C C79U,-3.54
7,G51U C101U,-4.07
8,C53A C124U U129G,-0.384
9,G52A C72U U125A G128C,-3.74
10,A50U C64U C72A C79A C101A,-5.1
11,G52A C56U,-0.699
12,G52U A121C,1.02
13,G52U U106G,-3.09
14,A50U G110C,-4.17
15,C53U G110C,-3.51
16,C53U G110U,-1.81
17,C53U G69U C70U C82U,-0.71
18,G51U U54C U59G,-3.68
19,G52A U78A,-0.123
20,G52A U78G,-0.374
21,G52A U78C,-0.748

row,Variant,polymerase ribozyme fitness (log ratio)
1,G52U C99U U132C,-4.08
2,G51U G135U,-4.28
3,C53G C97U C104A A118G,-3.19
4,G51A A68C C70G C102U G110A,-5.98
5,G52A U130C,-0.159
6,C53U G61C,0.349
7,G52A C86A A111C,-3.28
8,G52C G71C C102U C104A,-3.27
9,C53U A83C U87C,0.394
10,A50U C124A,0.575
11,A50U C86A A118U,-1.06
12,G51U C62G C124G,-5.32
13,C53U C99U,-2.93
14,C53A A74U C89U,-0.387
15,G52C C56U U78G G128C,-2.87
16,A50U C72U C73G G122A C124U,-0.982
17,G52A G57U C72U,-0.842
18,A50U C56U C64U U78C C85A U109A,-6.76
19,G52A C73U,-0.414
20,C53A C70U G117A A121C,-1.08
21,G51C G120C,-2.56

row,Variant,polymerase ribozyme fitness (log ratio)
1,C53U C88A G110A U112G,-4.23
2,C53A C79U C94G C101A,-1.64
3,G52C C56G G71U,-3.4
4,G51A U96G,-3.85
5,G51U G93A,-4.12
6,G52C G93A G113A A119G,-1.29
7,C53G G120U,-0.149
8,C53A C72G,0.124
9,A50U G71U G127A,-2.67
10,G51C C73G,-4.22
11,G52U C72U C80U C98U,-3.28
12,G52C C114U G127U U133A,-6.16
13,C53U A66G U112A,-0.539
14,C53U G61A A105C,-2.22
15,G51U C62A G110C,-8.04
16,C53U G60A A74C,-0.941
17,C53U G113U,-1.43
18,C53G C124U U129A,-0.596
19,C53A C70U C115A A118U,-1.34
20,C53U C56A,-0.566
21,C53U G69U C88G G110C C115A A121C C124G,-2.79

# Reference: the RNAGym collection of RNA variant scans (doi:10.1073/pnas.2313332121)
